Legend:
[1] = biological target: T1, epiregulin binding to AdrR cells (Homo sapiens, UniProt P21860); assay: biotinylated epiregulin binding to AdrR cells by FACS; format: cell-based; conditions: 12.5 μM antibodies, 1 μM Epi
T1 construct: host or cells: AdrR (NCI/AdrR) ovarian cancer cells
Experimental: After 30 minutes, 50 μl of 2 μM biotinylated Epi is added to the cells and incubated for another 30 minutes on ice. This yields a final concentration of 12.5 μM antibodies and 1 μM Epi. Cells are then washed twice with 500 μl BD stain buffer and incubated with 100 μl of a 1:200 dilution of streptavidin-PE (PE=phycoerythrin, a fluorescent protein) (Invitrogen) in BD stain buffer for 45 minutes. Finally, cells are washed twice, resuspended in 300 μl of BD stain buffer and analyzed in a FACSCALIBUR flow cytometer. As a positive control, 1×10^5 AdrR cells are incubated with 1 μM Epi for 30 minutes on ice, washed twice and incubated with a 1:200 dilution of streptavidin-PE for 45 minutes. To assess background staining from the streptavidin-PE conjugate, cells are incubated with 100 μl of a 1:200 dilution of streptavidin-PE only for 45 minutes.

DU145 spheroids = assay: spheroid growth assay; format: cell-based, human; conditions: DU145, 8 uM, 3.4 nM HRG
Experimental: (§1) Subconfluent cells are trypsinized, counted, and resuspended in filtered medium. The cell concentration is adjusted to 100,000 cells/ml, and one 20 ul drop (containing 2000 cells) is added to each ring on the underside of the lid of a 96-well plate. The lids with these hanging droplets are then placed back on the original 96-well plate, which contained 100 ul of PBS in each well to maintain moisture. Four days after initial plating, the hanging droplets containing the spheroids are replated into new 96-well plates. This replating involves transferring the lid containing the hanging droplets to a fresh 1% agarose/RPMI-coated 96-well plate that contains 150 ul of medium per well. The plate and lid are then centrifuged together at 500 rpm for 1 minute to transfer the spheroid-containing drops from the lids to the wells. Plates are then further incubated at 37° C. in a humidified CO2 incubator. Spheroids are photographed in an inverted phase contrast microscope. A micrometer scale is also photographed at the same magnification to determine spheroid size. The diameter of the spheroids is determined using METAMORPH image analysis software (MDS Analytical Technologies).
(§2) The diameters of the spheroids are measured using light microscopy (10× objective) at day 1 and day 13.

AdrR spheroids = assay: spheroid growth assay; format: cell-based, human; conditions: 8 uM
Experimental: as §1, §2

[2] = test system: AdrR ovarian cancer cells; assay: CellTiter-Glo proliferation assay; format: cell-based, human; conditions: 96 hours
Experimental: (§3) MALME3M, ACHN and NCI/AdrR cells are seeded in 96 well tissue culture plates and grown in RPMI-1640 media supplemented with antibiotics, 2 mM L-glutamine and 10% FBS for 24 hours at 37 degrees Celsius and 5% carbon dioxide. […] Cells are grown for 96 hours at 37° C. and 5% carbon dioxide, then harvested with CellTiter-Glo® Luminescent Cell Viability Assay (Promega, G7573) and analyzed on a luminometer. Media containing no serum and antibody is used as control.

ACHN cells = assay: CellTiter-Glo proliferation assay; format: cell-based, human; conditions: 96 hours
Experimental: as §3

MALME-3M cells = assay: CellTiter-Glo proliferation assay; format: cell-based, human; conditions: 96 hours
Experimental: as §3

[3] = test system: DU145 (a prostate tumor cell line) xenograft tumors; assay: DU145 xenograft combination therapy; format: in vivo, mouse; conditions: Ab #6 300 μg IP every three days; taxol 20 mg/kg IP once per week
Experimental: In a second experiment, mice bearing DU145 (a prostate tumor cell line) xenograft tumors are prepared by establishing tumors subcutaneously in the flanks of nude mice (Charles River Laboratories). […] Again, tumor size is measured twice a week and measurements are used to calculate tumor volume.

[4] = biological target: T2, recombinant human EGFR ectodomain (Homo sapiens, UniProt P00533); assay: binding specificity ELISA; conditions: IgG2 isotype of Ab #6
T2 construct: recombinant human EGFR ectodomain
Experimental: (§4) 96-well NUNC MAXISORB plates are coated by overnight incubation at room temperature with 50 μl/well of 5 μg/ml of individual proteins. The proteins are recombinant human EGFR ectodomain, BSA, recombinant human ErbB3 ectodomain and TGF-α. The next morning, plates are washed 3 times with […] of PBST (0.05% Tween-20) in the BIOTEK plate washer. The wells are blocked for 1 hr at room temperature with 2% BSA in PBS and washed again as before. […] All samples are run in duplicate and incubated for 2 hrs at 4° C. on a plate shaker. The plates are washed again as before. 50 μl of human IgG-Fc detection antibody (HRP conjugated, Bethyl Laboratories, Inc; 1:75000 dilution in 2% BSA, PBST) is added and the plates are incubated for 1 hr at room temperature. The plates are washed again as before. 50 μL of SUPERSIGNAL ELISA Pico substrate is added and the plate is read on the FUSION plate reader (Packard/Perkin Elmer). The data is analyzed using the EXCEL program. Duplicate samples are averaged and the error bars represent the standard deviation between the two replicates.

TGF-α = TGF-α (Homo sapiens, UniProt P01135); assay: binding specificity ELISA; conditions: IgG2 isotype of Ab #6
Experimental: as §4

[5] = biological target: T3, recombinant human ErbB3 ectodomain (Homo sapiens, UniProt P21860); assay: binding specificity ELISA; conditions: IgG2 isotype of Ab #6
T3 construct: recombinant human ErbB3 ectodomain
Experimental: as §4

[6] = test system: Du145 (prostate) xenograft; assay: xenograft tumor growth in nude mice; format: in vivo, mouse
[7] = biological target: T4, ErbB3 in MALME-3M xenografts (Homo sapiens, UniProt P21860); assay: total ErbB3 in MALME-3M xenografts in vivo; design: species or system mouse; conditions: MALME-3M xenograft, 24 hours post-injection, IgG1 or IgG2 isotype
T4 construct: ErbB3 expressed on MALME-3M melanoma cells; host or cells: MALME-3M melanoma cells
Experimental: T-cell deficient nu/nu mice (3-4 week old female mice originated at NIH; outbred; albino background) were purchased from Charles River Labs (Wilmington, Mass.). MALME-3M cells for implantation were grown in culture (RPMI media, 10% FBS, L-glutamine and antibiotics, 37° C., 5% CO2) to about 80% confluency before harvesting. Cells were kept on ice until implantation.
The tumors were measured (length by width) by digital caliper and the mice were pretreated with murine IgG2a (Sigma, M7769—5 mg) by intravenous injection to block in vivo depletion of tested antibodies by murine Fc receptors.
Final tumor measurements (L×W) were taken, the mice were euthanized by CO2 asphyxiation and tumors were excised, snap frozen in liquid nitrogen, and were stored at −80° C. (for biochemical analysis). Final tumor measurements were analyzed and graphed by tumor area and tumor volume as described, for example, in Burtrum et al., (2003) Cancer Res., 63:8912-8921. The data was also analyzed by “normalized” and “non-normalized” means for both tumor volume and tumor area. For the “normalization” of the data, at each time point of measurement, each tumor in each group was divided by the initial tumor size determined by caliper measurement.

B1: Ab #6: human anti-ErbB3 antibody from Fab-phage library, CDRs SEQ ID NOs:7-12; used as IgG1 and IgG2 isotypes; in phase I trials as MM-121 (antibody, V domains shown)
VH: EVQLLESGGGLVQPGGSLRLSCAASGFTFSHYVMAWVRQAPGKGLEWVSSISSSGGWTLYADSVKGRFTISRDNSKNTLYLQMNSLRAEDTAVYYCTRGLKMATIFDYWGQGTLVTVSS
VL: QSALTQPASVSGSPGQSITISCTGTSSDVGSYNVVSWYQQHPGKAPKLIIYEVSQRPSGVSNRFSGSKSGNTASLTISGLQTEDEADYYCCSYAGSSIFVIFGGGTKVTVL
inhibition of epiregulin binding to AdrR cells [1]: inhibited | inhibition of HRG-induced spheroid growth (DU145 spheroids): inhibits HRG induced spheroid growth | inhibition of HRG-induced spheroid growth (AdrR spheroids; 3.4 nM HRG): inhibits the HRG effect | inhibition of spheroid growth (AdrR spheroids; day 1 to day 13): inhibits spheroid growth in AdrR cells | inhibition of proliferation [2]: about 30.5% | inhibition of proliferation (ACHN cells): about 25.4% | inhibition of proliferation (MALME-3M cells): about 19.6% | inhibition of tumor growth (tumor volume) [3]: inhibited tumor growth | binding in ELISA [4]: did not show any appreciable binding | binding in ELISA (TGF-α): did not show any appreciable binding | binding in ELISA [5]: bound recombinant ErbB3 | inhibition of tumor growth ([6]; 300 ug every three days (Q3d), p<0.05): significant inhibition of tumor growth | inhibition of tumor growth ([6]; 600 ug Q3d versus 300 ug): further elevated | downregulation of total ErbB3 in xenograft tumors [7]: significant downregulation of total ErbB3

From patent US8691225B2, “Antibodies against the ectodomain of ErbB3 and uses thereof” (Merrimack Pharmaceuticals, Inc., priority 2007, dated 2014)
